Assay results from patent US20260266848A1, “COMPOSITIONS AND METHODS FOR DIAGNOSING AND TREATING DYSTONIA” (Duke University, priority 2023, published 2026).

Experiments:
WT MEF EVs = assay: Quantitative LC-MS/MS proteomics of EVs from ISRIB-treated WT MEF cultures; format: cell-based, mouse; set-up: key to ISRIB and DYT Parallel Direction / ISRIB and DYT Parallel Direction, Ctdsp1 / ISRIB and DYT Parallel Direction, Pcdh19 / ISRIB and DYT Parallel Direction, Tspan7 / ISRIB and DYT Parallel Direction, Myo1e / ISRIB and DYT Parallel Direction, Plpp3 / ISRIB and DYT Parallel Direction, Sh3bp4 / ISRIB and DYT Parallel Direction, Dnajc7 / ISRIB and DYT Parallel Direction, Drg1 / ISRIB and DYT Parallel Direction, Maea: YES = protein abundance effect similar to DYT/WT; details: EV protein abundance; for WT + ISRIB/WT Cohen's d: ISRIB-treated WT vs WT; for ISRIB and DYT Parallel Direction: WT + ISRIB vs WT, direction compared with DYT/WT
DYT-TOR1A MEF EVs = assay: Quantitative LC-MS/MS proteomics of EVs from drug-treated DYT-TOR1A MEF cultures (ritonavir, salubrinal); format: cell-based, mouse; set-up: key to RTV Corrective Direction / RTV Corrective Direction, Grwd1 / RTV Corrective Direction, Srrm2 / RTV Corrective Direction, Rbm17 / RTV Corrective Direction, Dcaf8 / RTV Corrective Direction, Edil3 / RTV Corrective Direction, Timp3 / RTV Corrective Direction, Heatr3 / RTV Corrective Direction, Brd4 / RTV Corrective Direction, P3h4 / RTV Corrective Direction, Pacsin3 / RTV Corrective Direction, Naa50 / RTV Corrective Direction, Lpar6 / RTV Corrective Direction, Ndrg1 / RTV Corrective Direction, Kntc1 / RTV Corrective Direction, Cdk11b / RTV Corrective Direction, Sumo1 / RTV Corrective Direction, Lsm4 / RTV Corrective Direction, Hmga2 / RTV Corrective Direction, Cstf1 / RTV Corrective Direction, Tes / RTV Corrective Direction, Sbno1 / RTV Corrective Direction, Unc119b / RTV Corrective Direction, Cfdp1 / RTV Corrective Direction, Sec61b: YES = protein abundance effect opposite to DYT/WT; details: EV protein abundance; for RTV Corrective Direction: DYT + RTV (ritonavir) vs DYT, direction compared with DYT/WT; for DYT + RTV/DYT Cohen's d: ritonavir (RTV)-treated DYT vs DYT

| Molecule | WT + ISRIB/WT Cohen's d (WT MEF EVs) | ISRIB and DYT Parallel Direction (WT MEF EVs) | RTV Corrective Direction (DYT-TOR1A MEF EVs) | DYT + RTV/DYT Cohen's d (DYT-TOR1A MEF EVs) |
| --- | --- | --- | --- | --- |
| Nectin2 (protein, UniProt Q92692 32-538, looked up) Nectin-2: QDVRVQVLPEVRGQLGGTVELPCHLLPPVPGLYISLVTWQRPDAPANHQNVAAFHPKMGPSFPSPKPGSERLSFVSAKQSTGQDTEAELQDATLALHGLTVEDEGNYTCEFATFPKGSVRGMTWLRVIAKPKNQAEAQKVTFSQDPTTVALCISKEGRPPARISWLSSLDWEAKETQVSGTLAGTVTVTSRFTLVPSGRADGVTVTCKVEHESFEEPALIPVTLSVRYPPEVSISGYDDNWYLGRTDATLSCDVRSNPEPTGYDWSTTSGTFPTSAVAQGSQLVIHAVDSLFNTTFVCTVTNAVGMGRAEQVIFVRETPNTAGAGATGGIIGGIIAAIIATAVAATGILICRQQRKEQTLQGAEEDEDLEGPPSYKPPTPKAKLEAQEMPSQLFTLGASEHSPLKTPYFDAGASCTEQEMPRYHELPTLEERSGPLHPGATSLGSPIPVPPGPPAVEDVSLDLEDEEGEEEEEYLDKINPIYDALSYSSPSDSYQGKGFVMSRAMYV | −1.19 | YES | YES | 3.32 |
| Steap3 (protein, UniProt Q8CI59 1-488, looked up) Metalloreductase STEAP3: MSGEMDKPLISRRLVDSDGSLAEVPKEAPKVGILGSGDFARSLATRLVGSGFSVVVGSRNPKRTAGLFPSLAQVTFQEEAVSSPEVIFVAVFREHYSSLCSLADQLAGKILVDVSNPTEKEHLQHRQSNAEYLASLFPACTVVKAFNVISAWALQAGPRDGNRQVLICSDQPEAKRTISEMARAMGFTPLDMGSLASAREVEAIPLRLLPSWKVPTLLALGLFVCFYTYNFIRDVLQPYIRKDENKFYKMPLSVVNTTLPCVAYVLLSLVYLPGVLAAALQLRRGTKYQRFPDWLDHWLQHRKQIGLLSFFFAMLHALYSFCLPLRRSHRYDLVNLAVKQVLANKSRLWVEEEVWRMEIYLSLGVLALGMLSLLAVTSLPSIANSLNWKEFSFVQSTLGFVALILSTMHTLTYGWTRAFEENHYKFYLPPTFTLTLLLPCVIILAKGLFLLPCLSRRLTKIRRGWEKDGAVKFMLPGDHTQGEKTSHV | −3.91 | YES | YES | 1.81 |
| Nif3l1 (protein, UniProt Q9EQ80 1-376, looked up) NIF3-like protein 1: MLSSAHLVPTSVQRAQSWICRSSRSFMDLKALLSSLNDFASLSFAESWDNVGLLVEPSPPHTVNTLFLTNDLTEEVMDEALQKKADFILSYHPPIFRPMKHITWKTWKECLVIRALENRVAVYSPHTAYDAAPQGVNSWLAKGLGTCTTRPIHPSRAPDYPTEGAHRLEFSVNRSQDLDKVMSTLRGVGGVSVTSFPARCDGEEQTRISLNCTQKTLMQVLAFLSQDRQLYQKTEILSLEKPLLLHTGMGRLCTLDESVSLAIMIERIKTHLKLSHLRLALGVGRTLESQVKVVALCAGSGGSVLQGVEADLYLTGEMSHHDVLDAASKGINVILCEHSNTERGFLSELQEMLGVHFENKINIILSETDRDPLRVV | −3.93 | YES | YES | 1.58 |
| Txnl1 (protein, UniProt O43396 2-289, looked up) Thioredoxin-like protein 1: VGVKPVGSDPDFQPELSGAGSRLAVVKFTMRGCGPCLRIAPAFSSMSNKYPQAVFLEVDVHQCQGTAATNNISATPTFLFFRNKVRIDQYQGADAVGLEEKIKQHLENDPGSNEDTDIPKGYMDLMPFINKAGCECLNESDEHGFDNCLRKDTTFLESDCDEQLLITVAFNQPVKLYSMKFQGPDNGQGPKYVKIFINLPRSMDFEEAERSEPTQALELTEDDIKEDGIVPLRYVKFQNVNSVTIFVQSNQGEEETTRISYFTFIGTPVQATNMNDFKRVVGKKGESH | −0.66 | YES | YES | 1.99 |
| Fgfr1 (protein, UniProt P16092 22-822, looked up) Fibroblast growth factor …: RPAPTLPEQAQPWGVPVEVESLLVHPGDLLQLRCRLRDDVQSINWLRDGVQLVESNRTRITGEEVEVRDSIPADSGLYACVTSSPSGSDTTYFSVNVSDALPSSEDDDDDDDSSSEEKETDNTKPNRRPVAPYWTSPEKMEKKLHAVPAAKTVKFKCPSSGTPNPTLRWLKNGKEFKPDHRIGGYKVRYATWSIIMDSVVPSDKGNYTCIVENEYGSINHTYQLDVVERSPHRPILQAGLPANKTVALGSNVEFMCKVYSDPQPHIQWLKHIEVNGSKIGPDNLPYVQILKTAGVNTTDKEMEVLHLRNVSFEDAGEYTCLAGNSIGLSHHSAWLTVLEALEERPAVMTSPLYLEIIIYCTGAFLISCMLGSVIIYKMKSGTKKSDFHSQMAVHKLAKSIPLRRQVTVSADSSASMNSGVLLVRPSRLSSSGTPMLAGVSEYELPEDPRWELPRDRLVLGKPLGEGCFGQVVLAEAIGLDKDKPNRVTKVAVKMLKSDATEKDLSDLISEMEMMKMIGKHKNIINLLGACTQDGPLYVIVEYASKGNLREYLQARRPPGLEYCYNPSHNPEEQLSSKDLVSCAYQVARGMEYLASKKCIHRDLAARNVLVTEDNVMKIADFGLARDIHHIDYYKKTTNGRLPVKWMAPEALFDRIYTHQSDVWSFGVLLWEIFTLGGSPYPGVPVEELFKLLKEGHRMDKPSNCTNELYMMMRDCWHAVPSQRPTFKQLVEDLDRIVALTSNQEYLDLSIPLDQYSPSFPDTRSSTCSSGEDSVFSHEPLPEEPCLPRHPTQLANSGLKRR | 5.66 | YES | YES | −2.81 |
| Aldh2 (protein, UniProt P47738 20-519, looked up) Aldehyde dehydrogenase, …: SAAATSAVPAPNHQPEVFCNQIFINNEWHDAVSRKTFPTVNPSTGEVICQVAEGNKEDVDKAVKAARAAFQLGSPWRRMDASDRGRLLYRLADLIERDRTYLAALETLDNGKPYVISYLVDLDMVLKCLRYYAGWADKYHGKTIPIDGDFFSYTRHEPVGVCGQIIPWNFPLLMQAWKLGPALATGNVVVMKVAEQTPLTALYVANLIKEAGFPPGVVNIVPGFGPTAGAAIASHEGVDKVAFTGSTEVGHLIQVAAGSSNLKRVTLELGGKSPNIIMSDADMDWAVEQAHFALFFNQGQCCCAGSRTFVQENVYDEFVERSVARAKSRVVGNPFDSRTEQGPQVDETQFKKILGYIKSGQQEGAKLLCGGGAAADRGYFIQPTVFGDVKDGMTIAKEEIFGPVMQILKFKTIEEVVGRANDSKYGLAAAVFTKDLDKANYLSQALQAGTVWINCYDVFGAQSPFGGYKMSGSGRELGEYGLQAYTEVKTVTVKVPQKNS | −7.25 | YES | YES | 18.21 |
| Slc9a1 (protein, UniProt Q61165 1-820, looked up) Sodium/hydrogen exchanger 1: MMLRWSGVWGFHPPRIFPSLLVVVALVGLLPVLRSHGLQHSPTASTIRGSEPPRERSIGDVTTAPSEPLHRPDDHNLTNLIIEHGGKPSRKAFPVLDIDYPHVRTPFEISLWILLACLMKIGFHVIPTISSIVPESCLLIVVGLLVGGLIKGVGETPPFLQSDVFFLFLLPPIILDAGYFLPLRQFTENLGTILIFAVVGTLWNAFFLGGLLYAVCLVGGEQINNIGLLDTLLFGSIISAVDPVAVLAVFEEIHINELLHILVFGESLLNDAVTVVLYHLFEEFASYDSVGISDIFLGFLSFFVVALGGVFVGVVYGVIAAFTSRFTSHIRVIEPLFVFLYSYMAYLSAELFHLSGIMALIASGVVMRPYVEANISHKSHTTIKYFLKMWSSVSETLIFIFLGVSTVAGSHQWNWTFVISTLLFCLIARVLGVLVLTWFINKFRIVKLTPKDQFIIAYGGLRGAIAFSLGYLLDKKHFPMCDLFLTAIITVIFFTVFVQGMTIRPLVDLLAVKKKQETKRSINEEIHTQFLDHLLTGIEDICGHYGHHHWKDKLNRFNKKYVKKCLIAGERSKEPQLIAFYHKMEMKQAIELVESGGMGKIPSAVSTVSMQNIHPKAVTSDRILPALSKDKEEEIRKILRSNLQKTRQRLRSYNRHTLVADPYEEAWNQMLLRRQKARQLEQKITNYLTVPAHKLDSPTLSRARIGSDPLAYEPKADLPVITIDPASPQSPESVDLVNEELKGKVLGLNRGPRVTPEEEEEDEDGIIMIRSKEPSSPGTDDVFTPGSSDSPSSQRIQRCLSDPGPHPEPGEGEPFIPKGQ | 0.44 | YES | YES | −2.60 |
